Measured values as given in patent US7037667.

Tested on: fluorescein thiocarbamoyl-labeled (FTC) casein

Sequence of GST-TMPRSS2 protease domain (AA 255-492) (chain, as listed by the source): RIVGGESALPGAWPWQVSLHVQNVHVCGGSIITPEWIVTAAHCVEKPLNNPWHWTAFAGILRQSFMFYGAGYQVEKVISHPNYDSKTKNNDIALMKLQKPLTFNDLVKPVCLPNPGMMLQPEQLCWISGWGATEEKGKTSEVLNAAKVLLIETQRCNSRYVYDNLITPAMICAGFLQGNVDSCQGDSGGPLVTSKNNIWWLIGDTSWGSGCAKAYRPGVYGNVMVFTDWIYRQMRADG

Substance: GST-TMPRSS2 protease domain (AA 255-492)
- protease activity, fluorescence of FTC-casein (EnzChek protease assay): purified recombinant GST-20P1F12/TMPRSS2 can cleave a universal substrate, namely casein in a dose dependent manner
